The text below walks through data of patent publication US6956022B2, “Agents for preventing and treating thrombocytopenia” (Chugai Seiyaku Kabushiki Kaisha, priority 1996, dated 2005).

In test [1] the test system is platelet counts. Put plainly: Test for single-dose administration to mouse (peripheral platelet count). Format: in vivo. The following applies: C57B1/6N mice, single dose 10 μg/kg through the tail vein, 6 and 9 h after the administration. As for the experimental part:
Test for Single-dose Administration to Mouse
Nine-week old male C57B1/6N mice as purchased from Japan Charles River Co. Ltd. were used in the experiment.
Human PTH(1-84) was dissolved in a citrate buffer (pH 5; containing 0.05% of Tween 80) at final concentrations of 1, 0.2 and 0.04 ˜g/mL so as to prepare the drug solutions to be administered.
Each of the thus prepared drug solutions and a control (citrate buffer) was administered to 15 mice through the tail vein in a volume of 10 mL/kg. […] The administration was initiated at 10 a.m.
After 3, 6 and 9 hours of the administration, five mice were picked up at random from each group of animals and blood samples were withdrawn through the orbital vein. At 10 a.m. on the same day, separate blood samples were taken from untreated mice (four in number) to obtain the preadministration value. Peripheral corpuscle counts were obtained with an automatic corpuscle counter F-800 (TOA MEDICAL ELECTRONICS CO., LTD.)

Test [2] has as its system CFU-GM (precursor cells of granulocytes and macrophages). The following applies: cited from earlier work.
Test [3] deals with platelet count. Put plainly: Test for daily administration to mouse (peripheral platelet count). The format is in vivo. The following applies: C57B1/6N mice, subcutaneous once a day. As for the experimental part: Test for Daily Administration to Mouse
Nine-week old male C57B1/6N mice as purchased from Japan Charles River Co., Ltd. were used in the experiment.
Drug solutions to be administered were prepared basically by the same procedure as in Example 1 to give drug concentrations of 5, 20 and 80 μg/mL.
The mice under test were divided into four groups, which were administered subcutaneously with the three drug solutions and a control (citrate buffer) once a day in a volume of 10 mL/kg. […] The administration was initiated at 10 a.m.
On days 5, 7 and 9 after the start of administration, five or six mice were picked up at random from each group of animals and blood samples were withdrawn through the orbital vein. The sampling of blood was timed to occur 24 h of the final administration. Separate blood samples were taken from untreated mice (five in number) to obtain the value for normal mouse. Peripheral corpuscle counts were obtained with an automatic corpuscle counter F-800(TOA MEDICAL ELECTRONICS CO., LTD.).

For test [4], the system named is BFU-E (precursor cells of erythrocytes). The following applies: cited from earlier work.
For test [5], the system named is platelet count. Briefly: Test for daily administration to rabbit (platelet count). The following applies: rabbits, 200 μg/kg subcutaneous daily. Format: in vivo. The method, then: Test for Daily Administration to Rabbit
Six 12-15 week old male Japanese albino rabbits JW/CSK were used in the experiment. The animals were individually kept in aluminum rabbit bracket cages Rb-1 (350^w×500^d×350^h mm) in a vavarium in a specific pathogen-free environment under the following conditions: temperature, 24±2° C.; humidity, 50±10%; illumination, light turned on at 5:00 and turned off at 19:00; ventilation, 15 changes/hr. Each animal was supplied with 120 g of a radiation-sterilized feed for rabbits RM (purchased from Funahashi Farm) per day. The animals were also allowed to drink to tap water ad libitum from an automatic water feeder.
Human PTH(1-84) was administered in a volume of 2 mL/vial at a concentration of 200 μg/mL. A solvent was also supplied in a volume of 2 mL/vial. Both the drug and the control were stored at −135° C. until use.
PTH (200 μg/kg) was administered to the rabbits subcutaneously at the back of their neck for 13 consecutive days. The solvent was similarly administered in the same volume as the dose of a rh-PTH solution calculated from their body weight.
Blood samples (0.5 mL) were withdrawn from the rabbits through the lateral auricular vein before the administration and on days 2, 6, 9 and 13 during the administration period. […]

B1: human PTH(1-84) (protein, UniProt P01270 32-115, looked up)
Parathyroid hormone: SVSEIQLMHNLGKHLNSMERVEWLRKKLQDVHNFVALGAPLAPRDAGSQRPRKKEDNVLVESHEKSLGEADKADVNVLTKAKSQ
modifications: Parathyroid hormone
For B1, the “platelet counts versus control” value in test [1] was “significant increase in platelet counts over the control”. The “in vitro colony formation by CFU-GM” value in test [2] is recorded as “interfered with”. Besides, the “platelet count versus control” value is given as “significantly higher in platelet count than the control” in test [3] (all treated groups (50, 200 and 800 μg/kg), day 7); “tendency to increase” in test [3] (groups administered 200 and 800 μg/kg, day 5). Moreover, in test [4], the “in vitro colony formation by BFU-E” value is “interfered with”. In addition, the “platelet count relative to the initial level” value in test [5] (day 13) is reported as “substantially returned to the initial level”. For the same molecule, in test [5] (increase from day 2 until day 6), the “platelet count relative to the initial value” is on record as “two to four times as great as the initial value”.
